Data taken from patent US20200102389A1 (Hoffmann-La Roche, published 2020).

What was measured:
[1] = molecular target: T1, recombinant soluble human HLA-G β2M MHC class I complex, monomer (human); test: SPR (Biacore T200), antibody captured via anti-Fc, HLA-G complex injected, 25 C, 1:1 fit
T1 construct: His tagged; also called HLA-G-0003
Procedure: (§1) Binding kinetics of anti-HLA-G antibodies to human HLA-G, human HLA-G degrafted and human HLA-A2 were investigated by surface plasmon resonance using a BIACORE T200 instrument (GE Healthcare). All experiments were performed at 25° C. using PBS Buffer (pH 7.4+0.05% Tween20) as running buffer and PBS Buffer (+0.1% BSA) as dilution buffer. Anti-human Fc (JIR009-005-098, Jackson) or anti-rat Fc (JIR112-005-071, Jackson) or anti-Mouse Fc (JIR115-005-071, Jackson) antibodies were immobilized on a Series S CM5 Sensor Chip (GE Healthcare) at pH 5.0 by using an amine coupling kit supplied by GE Healthcare. Anti-HLA-G antibodies were captured on the surface leading to a capturing response of 50-200 RU. HLA-G molecules were injected for 180 s at 30 μl/min with concentrations from 2.5 up to 800 nM (2×1:2 and 4×1:3 dilution series) onto the surface (association phase). The dissociation phase was monitored for 300-600 sec by washing with running buffer. […] Bulk refractive index differences were corrected by subtracting the response obtained from a mock surface. Blank injections were subtracted (double referencing). The derived curves were fitted to a 1:1 Langmuir binding model using the BIAevaluation software.
(§2) The above table summarizes the antibody affinities and t1/2 values against wt and degrafted HLA-G as assessed by Surface plasmon resonance (Biacore) analysis. Binding kinetics of anti-HLA-G antibodies to human HLA-G, human HLA-G degrafted and human HLA-A2 were investigated by surface plasmon resonance using a BIACORE T200 instrument (GE Healthcare). All experiments were performed at 25° C. using PBS Buffer (pH 7.4+0.05% Tween20) as running buffer and PBS Buffer (+0.1% BSA) as dilution buffer. Anti-human Fc (JIR009-005-098, Jackson) or anti-rat Fc (JIR112-005-071, Jackson) or anti-Mouse Fc (JIR115-005-071, Jackson) antibodies were immobilized on a Series S CM5 Sensor Chip (GE

[2] = molecular target: T2, recombinant soluble human HLA-G β2M MHC class I complex, dimer (human); test: competition ELISA, immobilised HLA-G dimer, antibody titrated, competitor c-myc ILT2
T2 construct: also called HLA-G Dimer; fraction A9
Procedure: (§3) The ELISA was set up by coating the biotinylated antigen wt HLA-G to strepdavidin plates. After incubation and washing steps, the respective antibodies were bound in a concentration range from 8-0 μg in 1:3 dilution steps. C-myc tagged ILT-2 or -4 receptor was added to the HLA-G-antibody complexes. After incubation and washing steps, detection of bound receptor was carried out by anti-cmyc-antibody-POD conjugates. IC50 values were determined from the resulting inhibition curves at the antibody concentrations generating the half-maximal inhibition. In case of the non-biotinylated HLA-G dimer and trimer antigens, immobilization was carried out by random coating on assay plates.

[3] = molecular target: T1, recombinant soluble human HLA-G β2M MHC …; test: blocking ELISA, Fc tagged ILT2 coated, 100 nM antibody, soluble HLA-G monomer
Procedure: (§4) The ELISA was set up by coating the Fc tagged ILT2 and ILT4 respectively to Maxisorp microtiter plates. After incubation and washing steps, the respective antibodies were added at a concentration of 100nM. Soluble His tagged monomeric, dimeric or trimeric HLA-G was added to the wells. After incubation and washing steps, detection of bound receptor was carried out by anti-His-antibody-POD conjugates.

[4] = molecular target: T2, recombinant soluble human HLA-G β2M MHC …; test: blocking ELISA, Fc tagged ILT2 coated, 100 nM antibody, soluble HLA-G dimer
Procedure: as §4

[5] = molecular target: T3, modified human HLA-G β2M MHC class I complex (HLA-G specific amino acids replaced by HLA-A consensus amino … (human)); test: SPR (Biacore T200), antibody captured via anti-Fc, degrafted HLA-G complex injected, 25 C, 1:1 fit
T3 construct: also called degrafted HLA-G
Procedure: as §1, §2

[6] = molecular target: T4, human HLA-G expressed on cells (JEG3 naturally; SKOV3 HLA-G+ and PA-TU-8902 HLA-G+ transfectants) (human, UniProt P17693 25-338); test: flow cytometry, JEG3 cells pre-incubated with antibody, competitor ILT2-Fc chimera
T4 construct: whole, on cells; also called cell surface HLA-G; HLA-G on JEG3 cells
Procedure: For analysis, JEG3 cells (ATCC HTB36) were stained with ILT2-Fc fusion proteins (control=no inhibition) with or without pre-incubation with different anti-HLA-G antibodies. For the pre-incubation with anti-HLA-G antibodies 25 μl/well of the cell suspension was transferred into a polypropylene 96-Well V-bottom plate and prechilled in the at 4° C. for 10 min. Anti HLA-G antibodies or reference antibodies (G233, MEM-G/9 or 87G) were diluted in staining buffer to a 2-fold concentration of 20 μg/ml and 25 μl/well of the antibody solution was added to the prepared cells and incubated for 1 h at 5° C. Cells were washed twice with 200 μl/well staining buffer with centrifugation at 300 g for 3 min and finally resuspended in 25 μl/well staining buffer.
The detection of human ILT2-Fc Chimera protein (RD #2017-T2-050) to a) JEG3 cells pre-incubated anti HLA-G mAb or b) untreated JEG3 cells as reference was determined as follows: Briefly, the ILT2-Fc or control human IgG (Jackson-Immuno-Research #009-000-003) were diluted in staining buffer to a 2-fold concentration of 20 μg/ml (ILT2) and 25 μl/well of the ILT2-Fc protein solution was added to the prepared cells and incubated for 2 h at 5° C. Cells were again washed twice with 200 μl/well staining buffer the human ILT2-Fcprotein was detected with fluorescent labeled anti human IgG Fc-gamma specific antibody (F(ab′)₂ Fragment Goat Anti-Human IgG, Fcy fragment specific-FITC, Jackson-Immuno-Research #109-096-008) at a dilution of 10 μg/ml in staining buffer. Cell pellets were resuspended in 50 μl/well detection antibody. After a 1-hour incubation at 5° C. cells were washed twice with staining buffer, resuspended in 70 μl and measured at a FACS Canto II to determine ILT2 binding to JEG 3 cells.

[7] = molecular target: T5, recombinant soluble human HLA-G β2M MHC class I complex, trimer (human); test: blocking ELISA, Fc tagged ILT2 coated, 100 nM antibody, soluble HLA-G trimer
T5 construct: also called HLA-G Trimer; fraction A8
Procedure: as §4

[8] = molecular target: T2, recombinant soluble human HLA-G β2M MHC …; test: competition ELISA, immobilised HLA-G dimer, antibody titrated, competitor c-myc ILT4
Procedure: as §3

Row | Kd [1] [nM] | koff [1] [s⁻¹] | kon [1] [M⁻¹ s⁻¹] | t ½ [1] [min] | IC50 [2] [nM] | % inh. ILT2 [3] [%] | % inh. ILT2 [4] [%] | Kd [5] [nM] | koff [5] [s⁻¹] | kon [5] [M⁻¹ s⁻¹] | t ½ [5] [min] | Inhibition of ILT2 binding to Jeg3 cells [6] [%] | % inh. ILT2 [7] [%] | IC50 [8] [nM] | Binder
1 | 31.5 | 0.00165 | 52300 | 7 | 1.2 | 75 | 95 | 3.62 | 0.0345 | 9.54e+06 | 0.3 | -9.3 | 93 | 31.3 | HLA-G-0033 (antibody, V domains shown) VH: EVQLVETGGGLVQSGRSLKLSCVASGFTFNDYWMTWTRQAPGKGLEWVASITNSGGRTYYLDSVRGRFTISRDDAQNTLYLQMNSLRSEDTATYYCTKERIYLTAYWFFDFWGPGTMVTVSS VL: DTILTQSPALAVSPGERVTISCRASESVSTLIHWYQQKPGQRPKLLIYLASHLESGVPARFSGSGSGTDFTLTIDPVEADDTATYYCQQSWNEPRTFGGGTKLELK
2 | 6.75 | 0.000882 | 131000 | 13 | 0.8 | 73 | 96 | 2120 | 0.116 | 54700 | 0.1 | 96.5 | 93 | – | HLA-G-0037 (antibody, V domains shown) VH: QVQLKESGPGLVQPSQTLSLTCSVSGFSLTTYSVSWVRQPPGKGLEWIGAIWSGGSTDYNSALKSRLRISRDTSKSQVLLKMNSLQTEDRAMYFCVRMNNKFGYWYFDLWGPGTMVTVSS VL: DTVLTQSPTLAVSPGEKITISCRASETVSTMLHWYQQKPGQQPKLLISLASHLESGVPARFTGSGSGTDFTLTIDPVEADDTATYYCQQTWNDPLTFGSGTKLEIK
3 | 14.9 | 0.00076 | 51200 | 15 | 1.3 | 75 | 95 | – | – | – | – | 98.1 | 93 | 50.3 | HLA-G-0032 (antibody, V domains shown) VH: QVQLQQSGAELVKPGSSVKISCKASGYSFPSYDMHWIKQQPGNGLEWIGWIYPGNGNTKYNQKFNGKASLTADKSSSTAYMQLSSLTSEDSAVYFCAKPTVATRYNWFAYWGQGTLVTVSS VL: QIVLTQSPALMSASPGEKVTMTCSASSSVNYMHWYQQKPRSSPKPWIYLTSNLASGVPARFSGSGSGTSYSLTISTMEAEDAATYYCQQWSSNLPITFGSGTKLEIK
